From publication PMC12642504 (bioRxiv, 2025)

Target: BG505 MD39.3 SOSIP trimer (soluble Env trimer, SPR analyte) (HIV-1 group M subtype A, isolate BG505, stabilised)
Assay: SPR

B1: V2-Int1 antibody (PCT64-18D), human IgG1 (antibody, V domains shown)
VH: EVQLVESGGGLVKPGGSLRLSCVGSGFAFSDAWMTWVRQAPGKGLEWVGHMRPTPEGGAKDYAAPVKGRFTVSRDDSKNTLYLQMNSLKIEDTAVYYCMTGVETGDFWSDYYAQYYDPYLIDVWGKGTTVTVSS
VL: EIVLTQSPGTLSLSPGDRATLSCRATQSVDSNYLAWYQQKPGQAPRLLIYGTSSRAAGIPDRFSGSGSGTDFTLTIDRLEPEDFAVYYCRQYGTSFTFGPGTKVDIK
- Kd: 770 nM
